Source: the RNAGym collection of RNA variant scans (doi:10.1073/pnas.2313332121)

B1: TPR t1 (parent)
chain: GACCAAUCUGCCCUCAGAGCUCGAGAACAUCUUCGGAUGCAGAGGAGGCAGGCUUCGGUGGCGCGAUAGCGCCAACGUCCUCAACCUCCAAUGCAUCCCACCACAUGAUGAUGCCUGAAGAGCCUUGGUUUUUUG

Variants of: B1
Experiment: polymerase ribozyme fitness, log enrichment relative to wild type (log ratio); higher = more active; in vitro selection for triplet polymerase activity
Method in brief: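 A heterodimeric triplet polymerase ribozyme had each of its subunits mutagenized by PCR into a library, which was transcribed. One round of in vitro selection, done in triplicate, annealed each library with a biotinylated primer, its partner subunit and triplets, then incubated it frozen at −7 °C before gel excision of extended constructs, streptavidin-bead capture and RT-PCR. Fitness is the logarithm of genotype enrichment relative to wild-type enrichment, based on Illumina sequencing of inputs and outputs and inverse-variance-weighted replicate averages. A base-2 logarithm is used, and genotypes were kept only with ≥10 input reads and ≥1 read per output.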

Row | Variant | polymerase ribozyme fitness (log ratio)
1 | C70G U112G U125C | -3.92
2 | G69C G77A C98U U126C U130C | -3.72
3 | C70A A105G | -4.48
4 | G69U U131A | -0.175
5 | G69U C73U G110A C123A | -0.661
6 | C70A U131A | -1.34
7 | C70A G135U | -1.99
8 | G69C C73A G122A C124G | -0.387
9 | C70U G93A | -0.708
10 | C70U G93U | -1.7
11 | G69U C72G | -1.29
12 | G69C C104A U106C U129A | -5.53
13 | G69U G117U | -1.07
14 | C70G G93U | -3.28
15 | C70U G110U G135U | -3.77
16 | C70A C86A G113A C123G | -2.59
17 | G69U C102G A119G | -2.01
18 | G69U C88A | 0.231
19 | C70A A83U | -2.44
20 | G69C C79U G117U U134G | -1.73
21 | C70G C123G U131C | 0.0447

Row | Variant | polymerase ribozyme fitness (log ratio)
22 | C70G U78C U92C | -5.65
23 | C70A C72U C101A | -2.45
24 | G69U A83U A95U U106A | 0.29
25 | G69U G71U G117A | -2.19
26 | C70G U112G | -2.86
27 | C70G U112A | -1.98
28 | G69U C80G C98A U130G | -7.2
29 | G69U C88U G120U | 0.599
30 | C70G U78A G93C | -2.76
31 | C70U A121U | 0.918
32 | C70U A121G | -0.18
33 | C70A C73U | -1.81
34 | G69C U133G | -1.57
35 | G69C G71U | -4.82
36 | C70U C72G U92A A108U U112C G113A A121G | -6.12
37 | C70U C85G | -2.33
38 | C70G U116A | -4.95
39 | C70U G110U U112G | -6.05
40 | G69U A84U A90U | -0.387
41 | C70G A74U | -4.98
42 | G69U G110A | 0.0569

Row | Variant | polymerase ribozyme fitness (log ratio)
43 | C70G U78C | -2.66
44 | C70U C94U U112A | 0.254
45 | C70G C80U | -2.51
46 | G69U C85A C101A | -1.66
47 | C70U C85A C102A | -5.05
48 | G69U A74C C104U | 0.0316
49 | C70U G113A C123A | -2.31
50 | G69U C72U C79U | -0.113
51 | C70U A91U | -3.34
52 | G69C C98A C104A C115U | -7.27
53 | G69U A119U | 0.577
54 | C70G U78C G113A A121G | -2.79
55 | C70U C124U | 0.579
56 | C70U C124A | 1.38
57 | C70A U92A A95U A111C G113C | -6.14
58 | C70U C98A | -4.77
59 | C70U C85U A91C | -3.52
60 | G69C G110A | -2.04
61 | G69U C114U | -0.582
62 | G69U C86G G120C | 0.63
63 | G69C U81C | -1.86

Row | Variant | polymerase ribozyme fitness (log ratio)
64 | C70U C82G G117U | -3.92
65 | G69U G120U U132C | 1.03
66 | C70U C82G C104A A111U C115U G127U | -6.19
67 | C70G A90C | -4.87
68 | C70U C101G | -2.81
69 | C70U C101U | -0.854
70 | G69C C101G G122A U125A | -3.83
71 | C70A C102A U112C | -2.45
72 | C70G C102A | -5.59
73 | G69U G107C | -4.24
74 | C70U U78C C86G | -0.947
75 | C70G G110U | -4.62
76 | G69C C94U U96A | -2.83
77 | C70G G113A | -3.02
78 | C70G G113C | -4
79 | C70U A111C | -0.279
80 | C70U A111U | -4.03
81 | C70U C72A C79U G110A | -2.38
82 | C70G C124A | -1.21
83 | C70G U81C | -3.83
84 | C70G U81A | -5.64
